{"source": "paper PMC6764996", "about": "“Molecular basis of microhomology-mediated end-joining by purified full-length Polθ”", "binders": {"B1": {"name": "RP316FAM5 (29 nt ssDNA) (ssDNA)", "DNA": "TTTTTTTTTTTTTTTTTTTTTTTTTTTTT"}}, "target": "Polθ (full-length DNA polymerase theta) (human, UniProt O75417 1-2590)", "sequence (O75417 whole entry)": "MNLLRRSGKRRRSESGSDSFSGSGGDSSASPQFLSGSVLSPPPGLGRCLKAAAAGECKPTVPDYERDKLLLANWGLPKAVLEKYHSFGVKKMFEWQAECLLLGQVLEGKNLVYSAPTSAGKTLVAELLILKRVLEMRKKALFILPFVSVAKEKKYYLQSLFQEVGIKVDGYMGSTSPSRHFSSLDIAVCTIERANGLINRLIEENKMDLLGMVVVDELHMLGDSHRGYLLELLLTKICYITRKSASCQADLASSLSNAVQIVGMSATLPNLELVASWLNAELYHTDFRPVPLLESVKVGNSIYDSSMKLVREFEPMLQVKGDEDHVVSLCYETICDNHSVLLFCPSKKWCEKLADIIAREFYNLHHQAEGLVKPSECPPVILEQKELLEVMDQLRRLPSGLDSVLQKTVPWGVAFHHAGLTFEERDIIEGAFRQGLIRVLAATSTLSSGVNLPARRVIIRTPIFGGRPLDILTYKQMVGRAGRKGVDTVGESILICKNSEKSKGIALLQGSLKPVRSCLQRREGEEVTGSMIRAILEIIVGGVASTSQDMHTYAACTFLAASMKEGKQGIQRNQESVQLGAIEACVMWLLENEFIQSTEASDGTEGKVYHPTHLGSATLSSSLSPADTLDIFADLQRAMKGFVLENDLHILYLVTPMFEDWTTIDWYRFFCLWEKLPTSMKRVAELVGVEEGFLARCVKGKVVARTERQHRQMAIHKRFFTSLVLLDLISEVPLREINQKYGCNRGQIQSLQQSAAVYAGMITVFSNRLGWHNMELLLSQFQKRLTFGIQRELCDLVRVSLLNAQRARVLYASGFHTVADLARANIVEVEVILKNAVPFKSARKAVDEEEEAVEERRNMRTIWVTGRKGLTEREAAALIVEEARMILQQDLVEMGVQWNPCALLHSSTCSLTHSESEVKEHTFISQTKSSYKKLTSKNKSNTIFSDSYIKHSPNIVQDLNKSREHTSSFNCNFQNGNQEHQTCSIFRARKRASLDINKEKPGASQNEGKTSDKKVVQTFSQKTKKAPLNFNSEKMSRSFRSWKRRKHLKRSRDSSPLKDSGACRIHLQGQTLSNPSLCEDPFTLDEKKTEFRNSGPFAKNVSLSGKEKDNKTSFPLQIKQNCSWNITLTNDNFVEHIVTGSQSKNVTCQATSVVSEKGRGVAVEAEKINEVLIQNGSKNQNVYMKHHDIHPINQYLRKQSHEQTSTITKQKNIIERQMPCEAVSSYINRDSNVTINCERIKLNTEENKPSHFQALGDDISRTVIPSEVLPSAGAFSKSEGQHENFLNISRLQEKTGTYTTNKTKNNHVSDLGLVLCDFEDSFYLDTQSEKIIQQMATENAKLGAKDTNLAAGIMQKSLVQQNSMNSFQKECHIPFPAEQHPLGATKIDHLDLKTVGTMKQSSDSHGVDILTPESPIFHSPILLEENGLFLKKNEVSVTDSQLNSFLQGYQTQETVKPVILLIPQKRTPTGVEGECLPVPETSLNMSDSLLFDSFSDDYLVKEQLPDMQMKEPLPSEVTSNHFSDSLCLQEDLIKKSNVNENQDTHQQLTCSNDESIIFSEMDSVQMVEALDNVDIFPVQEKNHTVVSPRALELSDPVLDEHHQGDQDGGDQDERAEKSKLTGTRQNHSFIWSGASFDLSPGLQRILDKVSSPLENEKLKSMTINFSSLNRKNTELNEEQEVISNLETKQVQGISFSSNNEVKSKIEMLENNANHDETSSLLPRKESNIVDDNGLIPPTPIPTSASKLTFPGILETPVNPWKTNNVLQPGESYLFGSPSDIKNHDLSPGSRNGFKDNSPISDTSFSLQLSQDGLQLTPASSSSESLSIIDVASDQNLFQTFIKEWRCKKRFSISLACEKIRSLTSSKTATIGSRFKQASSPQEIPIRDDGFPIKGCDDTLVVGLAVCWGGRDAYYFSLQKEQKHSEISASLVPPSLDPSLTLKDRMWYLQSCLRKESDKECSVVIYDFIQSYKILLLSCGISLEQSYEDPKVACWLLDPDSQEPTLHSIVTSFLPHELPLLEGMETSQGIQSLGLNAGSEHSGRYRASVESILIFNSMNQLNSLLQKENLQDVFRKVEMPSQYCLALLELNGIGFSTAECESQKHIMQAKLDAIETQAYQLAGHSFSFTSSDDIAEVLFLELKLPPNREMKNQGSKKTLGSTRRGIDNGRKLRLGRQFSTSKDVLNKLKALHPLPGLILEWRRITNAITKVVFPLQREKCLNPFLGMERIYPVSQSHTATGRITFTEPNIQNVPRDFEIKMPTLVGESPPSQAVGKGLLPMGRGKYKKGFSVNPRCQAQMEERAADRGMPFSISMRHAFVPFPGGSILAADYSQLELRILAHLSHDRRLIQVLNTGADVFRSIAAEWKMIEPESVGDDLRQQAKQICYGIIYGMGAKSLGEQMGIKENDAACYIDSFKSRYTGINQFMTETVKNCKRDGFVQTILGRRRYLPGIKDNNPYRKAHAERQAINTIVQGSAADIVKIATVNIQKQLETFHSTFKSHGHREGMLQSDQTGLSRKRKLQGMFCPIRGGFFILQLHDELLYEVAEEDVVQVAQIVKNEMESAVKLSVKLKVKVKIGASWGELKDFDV", "assay": "fluorescence anisotropy; 1 mM ATP, 10 mM MgCl2; KD printed only in figure; significantly lower than Polθ-pol and Polθ-hel; Anisotropy: 25 mM Tris-HCl pH 8.8, 1 mM DTT, 0.01% NP-40, 10 mM MgCl2, 10% glycerol, 0.1 mg/ml BSA, 1 mM ATP, 30 mM NaCl, room temp, at least 30 min, 10 nM FAM-ssDNA", "conditions": "protein: recombinant; tags: 3xFLAG (N-terminal); label: 5' FAM"}
{"binder": "B1", "values": [{"measurement": "binding result", "value": "binds"}]}
